Tests used:
[1] = molecular target: KirBac1.3-GIRK1 chimeric protein (GIRK chimera) in MSP1E3 nanodiscs (mouse | Burkholderia xenovorans) (UniProt P63250); assay: NMR titration; 1H-13C HMQC (methyl-TROSY) of 11 μM Gα[ILVA]βγ with or without 22 μM (2 eq.) GIRK chimera-nanodiscs; 20 °C; 20 mM HEPES-NaOH pH 7.0, 150 mM KCl, 0.5 mM GDP, 0.1 mM TCEP; signal intensity reductions; apparent Kd estimated
[2] = molecular target: NLuc-tagged GIRK (GIRK1/GIRK2-Luc) (human) (UniProt P48549); assay: FRET or BRET; agonist-induced BRET in living HEK293T cells between Venus-Gβγ (acceptor) and GRK-Luc or GIRK-Luc (donor); co-expressed GPCR (DOR or D2R), PTX S1 and a PTX-insensitive Gα (C351A); agonist 10 μM, then antagonist; PBS with 0.5 mM MgCl2 and 0.1% glucose; read 3 min after ligand
NLuc-tagged GIRK (GIRK1/GIRK2-Luc) (human), sequence (P48549 whole entry, chain 1 of 2): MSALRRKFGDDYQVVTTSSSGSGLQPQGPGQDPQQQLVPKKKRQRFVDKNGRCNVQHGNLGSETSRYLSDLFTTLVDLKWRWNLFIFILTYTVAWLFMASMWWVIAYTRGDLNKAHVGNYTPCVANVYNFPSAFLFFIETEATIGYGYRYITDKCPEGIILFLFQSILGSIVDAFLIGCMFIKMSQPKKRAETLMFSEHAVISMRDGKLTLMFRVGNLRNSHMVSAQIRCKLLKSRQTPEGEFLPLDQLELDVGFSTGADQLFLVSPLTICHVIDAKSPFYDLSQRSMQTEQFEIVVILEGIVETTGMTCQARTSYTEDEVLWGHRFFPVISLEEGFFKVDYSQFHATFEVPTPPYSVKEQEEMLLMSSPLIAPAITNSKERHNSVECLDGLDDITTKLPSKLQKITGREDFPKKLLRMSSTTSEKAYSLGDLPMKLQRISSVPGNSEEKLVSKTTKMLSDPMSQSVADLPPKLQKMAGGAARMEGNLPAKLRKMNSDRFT
NLuc-tagged GIRK (GIRK1/GIRK2-Luc) (human), sequence (P48051 whole entry, chain 2 of 2, further chain): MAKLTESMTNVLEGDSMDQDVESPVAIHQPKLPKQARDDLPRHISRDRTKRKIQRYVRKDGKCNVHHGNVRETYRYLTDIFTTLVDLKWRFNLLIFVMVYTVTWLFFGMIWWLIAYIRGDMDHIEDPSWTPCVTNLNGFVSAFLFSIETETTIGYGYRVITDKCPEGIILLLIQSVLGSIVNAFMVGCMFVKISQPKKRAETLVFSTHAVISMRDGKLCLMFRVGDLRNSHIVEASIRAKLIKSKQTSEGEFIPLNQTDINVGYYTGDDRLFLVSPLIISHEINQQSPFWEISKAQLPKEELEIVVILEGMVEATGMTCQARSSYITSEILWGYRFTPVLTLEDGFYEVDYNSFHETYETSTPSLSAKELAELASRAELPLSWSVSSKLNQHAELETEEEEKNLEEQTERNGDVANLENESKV

[3] = molecular target: T1, Gβγ dimer (human Gβ1 and His6-tagged human Gγ2 (C68S)) (human, UniProt P62873 1-340; P59768 1-71, C68S); assay: SEC; purified Gα and Gβγ mixed with a slight excess of Gβγ; Gαβγ isolated by gel filtration on Superdex 200; conditions: both partners purified
T1 construct: G protein β1 subunit (Gβ1), human; G protein γ2 subunit (Gγ2), human; also called [non-labeled]βγ

## Gαi3βγ heterotrimer (Gαi3[ILVA] complexed with non-labeled Gβ1γ2(C68S)), GDP-bound (from UniProt P08754 1-354; P62873 1-340; P59768 1-71)
[1]
  Kd: > 200 µM

## Venus-tagged Gβγ (Venus 156–239-Gβ1 with Venus 1–155-Gγ2) (from UniProt P62873 1-340; P59768 1-71) (complex)
[2]
  specificity factor (ΔBRET GIRK/ΔBRET GRK), with D2R and Gαi3: 0.303
  specificity factor (ΔBRET GIRK/ΔBRET GRK), with D2R and Gαiqi: 0.157
  specificity factor (ΔBRET GIRK/ΔBRET GRK), with D2R and Gαqi5: 0.091
  specificity factor (ΔBRET GIRK/ΔBRET GRK), with D2R and Gαqiqi5: 0.236
  specificity factor (ΔBRET GIRK/ΔBRET GRK), with DOR and Gαi3: 0.286
  specificity factor (ΔBRET GIRK/ΔBRET GRK), with DOR and Gαiqi: 0.148
  specificity factor (ΔBRET GIRK/ΔBRET GRK), with Gαi3-q(αA): 0.159
  specificity factor (ΔBRET GIRK/ΔBRET GRK), with Gαi3-q(αB): 0.248
  specificity factor (ΔBRET GIRK/ΔBRET GRK), with Gαi3-q(αE): 0.249

B1: Gαiqi (chimeric Gα: GTPase domain of Gαi3, helical domain of Gαq), purified (other, human, UniProt P08754 1-62, looked up)
chain: MGCTLSAEDKAAVERSKMIDRNLREDGEKAAKEVKLLLLGAGESGKSTIVKQMKIIHEDGYSDEDKRGFTKLVYQNIFTAMQAMIRAMDTLKIPYKYEHNKAHAQLVREVDVEKVSAFENPYVDAIKSLWNDPGIQECYDRRREYQLSDSTKYYLNDLDRVADPAYLPTQQDVLRTRVKTTGIVETHFTFKDLYFKMFDVGGQRSERKKWIHCFEGVTAIIFCVALSDYDLVLAEDEEMNRMHESMKLFDSICNNKWFTETSIILFLNKKDLFEEKIKRSPLTICYPEYTGSNTYEEAAAYIQCQFEDLNRRKDTKEIYTHFTCATDTKNVQFVFDAVTDVIIKNNLKECGLY
notes: Gαi3, human, GTPase domain residues 1-62; Gαq, human, helical domain residues 69-180; Gαi3, human, GTPase domain residues 176-354; also called Gαiqi[ILVA]; source: E. coli BL21-CodonPlus (DE3)-RP, purified in the same way as the wild-type Gαi3; not shown: His10, N-terminal, cleaved
[3]
  binding result: binds
